The source of these data is paper doi:10.1101/2020.02.22.960815 (bioRxiv, 2020).

As usually defined, the stoichiometry N is a count of units in the complex or per binding partner.

The data set deals with the molecule itself. The experiment in a line: cryo-EM structure.

B1: human potassium-chloride co-transporter 2 (KCC2), full length (natural protein, UniProt Q9H2X9-2 1-1116, looked up)
chain: MLNNLTDCEDGDGGANPGDGNPKESSPFINSTDTEKGKEYDGKNMALFEEEMDTSPMVSSLLSGLANYTNLPQGSREHEEAENNEGGKKKPVQAPRMGTFMGVYLPCLQNIFGVILFLRLTWVVGIAGIMESFCMVFICCSCTMLTAISMSAIATNGVVPAGGSYYMISRSLGPEFGGAVGLCFYLGTTFAGAMYILGTIEILLAYLFPAMAIFKAEDASGEAAAMLNNMRVYGTCVLTCMATVVFVGVKYVNKFALVFLGCVILSILAIYAGVIKSAFDPPNFPICLLGNRTLSRHGFDVCAKLAWEGNETVTTRLWGLFCSSRFLNATCDEYFTRNNVTEIQGIPGAASGLIKENLWSSYLTKGVIVERSGMTSVGLADGTPIDMDHPYVFSDMTSYFTLLVGIYFPSVTGIMAGSNRSGDLRDAQKSIPTGTILAIATTSAVYISSVVLFGACIEGVVLRDKFGEAVNGNLVVGTLAWPSPWVIVIGSFFSTCGAGLQSLTGAPRLLQAISRDGIVPFLQVFGHGKANGEPTWALLLTACICEIGILIASLDEVAPILSMFFLMCYMFVNLACAVQTLLRTPNWRPRFRYYHWTLSFLGMSLCLALMFICSWYYALVAMLIAGLIYKYIEYRGAEKEWGDGIRGLSLSAARYALLRLEEGPPHTKNWRPQLLVLVRVDQDQNVVHPQLLSLTSQLKAGKGLTIVGSVLEGTFLENHPQAQRAEESIRRLMEAEKVKGFCQVVISSNLRDGVSHLIQSGGLGGLQHNTVLVGWPRNWRQKEDHQTWRNFIELVRETTAGHLALLVTKNVSMFPGNPERFSEGSIDVWWIVHDGGMLMLLPFLLRHHKVWRKCKMRIFTVAQMDDNSIQMKKDLTTFLYHLRITAEVEVVEMHESDISAYTYEKTLVMEQRSQILKQMHLTKNEREREIQSITDESRGSIRRKNPANTRLRLNVPEETAGDSEEKPEEEVQLIHDQSAPSCPSSSPSPGEEPEGEGETDPEKVHLTWTKDKSVAEKNKGPSPVSSEGIKDFFSMKPEWENLNQSNVRRMHTAVRLNEVIVKKSRDAKLVLLNMPGPPRNRNGDENYMEFLEVLTEHLDRVMLVRGGGREVITIYS
On to B1, for which the “stoichiometry N” value is 2.

B2: human potassium-chloride co-transporter 3 (KCC3), full length, wild type (natural protein, UniProt Q9UHW9-2 1-1099, looked up)
chain: MPHFTVTKVEDPEEGAAASISQEPSLADIKARIQDSDEPDLSQNSITGEHSQLLDDGHKKARNAYLNNSNYEEGDEYFDKNLALFEEEMDTRPKVSSLLNRMANYTNLTQGAKEHEEAENITEGKKKPTKTPQMGTFMGVYLPCLQNIFGVILFLRLTWVVGTAGVLQAFAIVLICCCCTMLTAISMSAIATNGVVPAGGSYFMISRALGPEFGGAVGLCFYLGTTFAAAMYILGAIEIFLVYIVPRAAIFHSDDALKESAAMLNNMRVYGTAFLVLMVLVVFIGVRYVNKFASLFLACVIVSILAIYAGAIKSSFAPPHFPVCMLGNRTLSSRHIDVCSKTKEINNMTVPSKLWGFFCNSSQFFNATCDEYFVHNNVTSIQGIPGLASGIITENLWSNYLPKGEIIEKPSAKSSDVLGSLNHEYVLVDITTSFTLLVGIFFPSVTGIMAGSNRSGDLKDAQKSIPIGTILAILTTSFVYLSNVVLFGACIEGVVLRDKFGDAVKGNLVVGTLSWPSPWVIVIGSFFSTCGAGLQSLTGAPRLLQAIAKDNIIPFLRVFGHSKANGEPTWALLLTAAIAELGILIASLDLVAPILSMFFLMCYLFVNLACALQTLLRTPNWRPRFRYYHWALSFMGMSICLALMFISSWYYAIVAMVIAGMIYKYIEYQGAEKEWGDGIRGLSLSAARFALLRLEEGPPHTKNWRPQLLVLLKLDEDLHVKHPRLLTFASQLKAGKGLTIVGSVIVGNFLENYGEALAAEQTIKHLMEAEKVKGFCQLVVAAKLREGISHLIQSCGLGGMKHNTVVMGWPNGWRQSEDARAWKTFIGTVRVTTAAHLALLVAKNISFFPSNVEQFSEGNIDVWWIVHDGGMLMLLPFLLKQHKVWRKCSIRIFTVAQLEDNSIQMKKDLATFLYHLRIEAEVEVVEMHDSDISAYTYERTLMMEQRSQMLRHMRLSKTERDREAQLVKDRNSMLRLTSIGSDEDEETETYQEKVHMTWTKDKYMASRGQKAKSMEGFQDLLNMRPDQSNVRRMHTAVKLNEVIVNKSHEAKLVLLNMPGPPRNPEGDENYMEFLEVLTEGLERVLLVRGGGSEVITIYS
modifications: phosphorylated threonine built on T940 and T997 (from the cryo-EM map and mass spectra); carbohydrate chains
For B2, the “stoichiometry N” value was 2.

B3: KCC3 phosphorylation mimic mutant S45E/T940E/T997E (natural protein, human, UniProt Q9UHW9-2 1-1099, looked up)
chain: MPHFTVTKVEDPEEGAAASISQEPSLADIKARIQDSDEPDLSQNEITGEHSQLLDDGHKKARNAYLNNSNYEEGDEYFDKNLALFEEEMDTRPKVSSLLNRMANYTNLTQGAKEHEEAENITEGKKKPTKTPQMGTFMGVYLPCLQNIFGVILFLRLTWVVGTAGVLQAFAIVLICCCCTMLTAISMSAIATNGVVPAGGSYFMISRALGPEFGGAVGLCFYLGTTFAAAMYILGAIEIFLVYIVPRAAIFHSDDALKESAAMLNNMRVYGTAFLVLMVLVVFIGVRYVNKFASLFLACVIVSILAIYAGAIKSSFAPPHFPVCMLGNRTLSSRHIDVCSKTKEINNMTVPSKLWGFFCNSSQFFNATCDEYFVHNNVTSIQGIPGLASGIITENLWSNYLPKGEIIEKPSAKSSDVLGSLNHEYVLVDITTSFTLLVGIFFPSVTGIMAGSNRSGDLKDAQKSIPIGTILAILTTSFVYLSNVVLFGACIEGVVLRDKFGDAVKGNLVVGTLSWPSPWVIVIGSFFSTCGAGLQSLTGAPRLLQAIAKDNIIPFLRVFGHSKANGEPTWALLLTAAIAELGILIASLDLVAPILSMFFLMCYLFVNLACALQTLLRTPNWRPRFRYYHWALSFMGMSICLALMFISSWYYAIVAMVIAGMIYKYIEYQGAEKEWGDGIRGLSLSAARFALLRLEEGPPHTKNWRPQLLVLLKLDEDLHVKHPRLLTFASQLKAGKGLTIVGSVIVGNFLENYGEALAAEQTIKHLMEAEKVKGFCQLVVAAKLREGISHLIQSCGLGGMKHNTVVMGWPNGWRQSEDARAWKTFIGTVRVTTAAHLALLVAKNISFFPSNVEQFSEGNIDVWWIVHDGGMLMLLPFLLKQHKVWRKCSIRIFTVAQLEDNSIQMKKDLATFLYHLRIEAEVEVVEMHDSDISAYTYERELMMEQRSQMLRHMRLSKTERDREAQLVKDRNSMLRLTSIGSDEDEETETYQEKVHMEWTKDKYMASRGQKAKSMEGFQDLLNMRPDQSNVRRMHTAVKLNEVIVNKSHEAKLVLLNMPGPPRNPEGDENYMEFLEVLTEGLERVLLVRGGGSEVITIYS
As for B3, the binding result is reported as “binds”.

B4: KCC3 dephosphorylation mimic mutant S45A/T940V/T997V (natural protein, human, UniProt Q9UHW9-2 1-1099, looked up)
chain: MPHFTVTKVEDPEEGAAASISQEPSLADIKARIQDSDEPDLSQNAITGEHSQLLDDGHKKARNAYLNNSNYEEGDEYFDKNLALFEEEMDTRPKVSSLLNRMANYTNLTQGAKEHEEAENITEGKKKPTKTPQMGTFMGVYLPCLQNIFGVILFLRLTWVVGTAGVLQAFAIVLICCCCTMLTAISMSAIATNGVVPAGGSYFMISRALGPEFGGAVGLCFYLGTTFAAAMYILGAIEIFLVYIVPRAAIFHSDDALKESAAMLNNMRVYGTAFLVLMVLVVFIGVRYVNKFASLFLACVIVSILAIYAGAIKSSFAPPHFPVCMLGNRTLSSRHIDVCSKTKEINNMTVPSKLWGFFCNSSQFFNATCDEYFVHNNVTSIQGIPGLASGIITENLWSNYLPKGEIIEKPSAKSSDVLGSLNHEYVLVDITTSFTLLVGIFFPSVTGIMAGSNRSGDLKDAQKSIPIGTILAILTTSFVYLSNVVLFGACIEGVVLRDKFGDAVKGNLVVGTLSWPSPWVIVIGSFFSTCGAGLQSLTGAPRLLQAIAKDNIIPFLRVFGHSKANGEPTWALLLTAAIAELGILIASLDLVAPILSMFFLMCYLFVNLACALQTLLRTPNWRPRFRYYHWALSFMGMSICLALMFISSWYYAIVAMVIAGMIYKYIEYQGAEKEWGDGIRGLSLSAARFALLRLEEGPPHTKNWRPQLLVLLKLDEDLHVKHPRLLTFASQLKAGKGLTIVGSVIVGNFLENYGEALAAEQTIKHLMEAEKVKGFCQLVVAAKLREGISHLIQSCGLGGMKHNTVVMGWPNGWRQSEDARAWKTFIGTVRVTTAAHLALLVAKNISFFPSNVEQFSEGNIDVWWIVHDGGMLMLLPFLLKQHKVWRKCSIRIFTVAQLEDNSIQMKKDLATFLYHLRIEAEVEVVEMHDSDISAYTYERVLMMEQRSQMLRHMRLSKTERDREAQLVKDRNSMLRLTSIGSDEDEETETYQEKVHMVWTKDKYMASRGQKAKSMEGFQDLLNMRPDQSNVRRMHTAVKLNEVIVNKSHEAKLVLLNMPGPPRNPEGDENYMEFLEVLTEGLERVLLVRGGGSEVITIYS
For the protein B4, the binding result is given as “binds”.
